From patent US20250243290A1
“And” between values parts separate entries of the source, which are not always exact repeats. Equal values may be shown once. Read-outs that look alike come from different tables or passages of the source.

Legend:
Assay in all cases: peptide-array ELISA [Con't]
…2RPG = target: …2RPG
[1] = target: PE2LS2…2…
[2] = target: WY2…
…2RP = target: …2RP
2LS2…2RP = target: 2LS2…2RP
WVPE2…2 = target: WVPE2…2
[3] = target: TSDVV2…
NRI2…2RL = target: NRI2…2RL
LS2…2RPGW = target: LS2…2RPGW
NWVPE2…2T = target: NWVPE2…2T
CG2RL2APLRK2…2TSTSPTRC = target: CG2RL2APLRK2…2TSTSPTRC
[4] = target: WNWVPE2…
Sequence of WNWVPE2… (peptide, as listed by the source): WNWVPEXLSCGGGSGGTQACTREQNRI

2LS2…2TREQNRIC = target: 2LS2…2TREQNRIC
[5] = target: WY2…2…
…2…2R = target: …2…2R
[6] = target: EGCRL2…
Sequence of EGCRL2… (peptide, as listed by the source): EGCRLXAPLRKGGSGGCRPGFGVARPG

…2RPGW = target: …2RPGW
Sequence of …2RPGW (peptide, as listed by the source): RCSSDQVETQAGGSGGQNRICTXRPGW

VPE2LSCGSR2…2T = target: VPE2LSCGSR2…2T
WNWVPE2…2T = target: WNWVPE2…2T
[7] = target: CQI2…2…
[8] = target: 2…
[9] = target: DVV2…
[10] = target: …2…
CDQVETQA2…2RLC = target: CDQVETQA2…2RLC
REQNRI2…2RL = target: REQNRI2…2RL
EQNRI2…2RL = target: EQNRI2…2RL
…2SK2SPGQ = target: …2SK2SPGQ
[11] = target: CGWY2ALSKQEG2RL2CQA2TREQNRI2T2RPC
…22SK2CQA2TREQNRI2T2RPC = target: …22SK2CQA2TREQNRI2T2RPC
[12] = target: C22SK2…2CQA2TREQNRI2T2RPC
[13] = target: …2…2…
CLSKQEG2RL2…2TREQNRIC = target: CLSKQEG2RL2…2TREQNRIC
[14] = target: CQA2TREQNRI2T2RPCQA2TREQNRI2T2RPC
…2TREQNRI2T2RPC = target: …2TREQNRI2T2RPC
2TREQNRI2…2R = target: 2TREQNRI2…2R
[15] = target: CQTAQM22SK2…2…
CNASMDAV2…2TREQNRI2T2RPC = target: CNASMDAV2…2TREQNRI2T2RPC
CNASMDAV2…2TSTSPTRC = target: CNASMDAV2…2TSTSPTRC
[16] = target: CLSKQEG2RL2APLRKCQA2TREQNRI2T2RPC
QNRI2…2R = target: QNRI2…2R
[17] = target: VPE2LSCGSR2…
NWVPE2…2T2 = target: NWVPE2…2T2
CQA2TREQNRI2T2…2RLC = target: CQA2TREQNRI2T2…2RLC
[18] = target: CI2RPHQI2…2…
VPE2LS2…2R = target: VPE2LS2…2R
…2TSTSPTRC = target: …2TSTSPTRC
Sequence of …2TSTSPTRC (peptide, as listed by the source): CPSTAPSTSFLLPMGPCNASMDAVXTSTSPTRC

CAPLRK2…2TSTSPTRC = target: CAPLRK2…2TSTSPTRC
[19] = target: CAV2…2…
…2R = target: …2R
Sequence of …2R (peptide, as listed by the source): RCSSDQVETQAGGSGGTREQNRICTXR

[20] = target: CTSSTDI2RPHQI2NVCAPLRK2…
2LS2…2RPG = target: 2LS2…2RPG
PE2LS2…2R = target: PE2LS2…2R
[21] = target: 2…; remark: listed apart in the source

Sequence of WY2… (peptide, as listed by the source): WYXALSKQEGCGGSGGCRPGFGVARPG
Sequence of …2RP (peptide, as listed by the source): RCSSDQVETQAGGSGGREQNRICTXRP

For agonistic TNFR2 antibody MR2-1, the Raw luminescence data (…2RPG) was 341 and 293, the Raw luminescence data [1] was 317 and the Raw luminescence data [2] was 344. The Raw luminescence data (…2RP) was 324, the Raw luminescence data (2LS2…2RP) was 362 and the Raw luminescence data (WVPE2…2) was 317. For the same substance, the Raw luminescence data [3] was 323, the Raw luminescence data (NRI2…2RL) was 296 and the Raw luminescence data (LS2…2RPGW) was 299. For the same substance, the Raw luminescence data (NWVPE2…2T) was 283, the Raw luminescence data (CG2RL2APLRK2…2TSTSPTRC) was 287 and the Raw luminescence data [4] was 291. For the same substance, the Raw luminescence data (2LS2…2TREQNRIC) was 288, the Raw luminescence data [5] was 287 and the Raw luminescence data (…2…2R) was 299. It also gave a Raw luminescence data [6] of 359, a Raw luminescence data (…2RPGW) of 308 and a Raw luminescence data (VPE2LSCGSR2…2T) of 292. It also gave a Raw luminescence data (WNWVPE2…2T) of 323, a Raw luminescence data [7] of 286 and a Raw luminescence data [8] of 351. The Raw luminescence data [9] was 159, the Raw luminescence data [10] was 166 and 165 and the Raw luminescence data (CDQVETQA2…2RLC) was 157. The Raw luminescence data (REQNRI2…2RL) was 161, the Raw luminescence data (EQNRI2…2RL) was 159 and the Raw luminescence data (…2SK2SPGQ) was 163 and 156. It also gave a Raw luminescence data [11] of 158, a Raw luminescence data (…22SK2CQA2TREQNRI2T2RPC) of 158 and a Raw luminescence data [12] of 158. The Raw luminescence data [13] was 160, the Raw luminescence data (CLSKQEG2RL2…2TREQNRIC) was 160 and the Raw luminescence data [14] was 166. The Raw luminescence data (…2TREQNRI2T2RPC) was 163, the Raw luminescence data (2TREQNRI2…2R) was 164 and the Raw luminescence data [15] was 161. It also gave a Raw luminescence data (CNASMDAV2…2TREQNRI2T2RPC) of 157, a Raw luminescence data (CNASMDAV2…2TSTSPTRC) of 164 and a Raw luminescence data [16] of 158. It also gave a Raw luminescence data (QNRI2…2R) of 170, a Raw luminescence data [17] of 165 and a Raw luminescence data (NWVPE2…2T2) of 168. It also gave a Raw luminescence data (CQA2TREQNRI2T2…2RLC) of 171, a Raw luminescence data [18] of 165 and a Raw luminescence data (VPE2LS2…2R) of 170. For the same substance, the Raw luminescence data (…2TSTSPTRC) was 159, the Raw luminescence data (CAPLRK2…2TSTSPTRC) was 167 and the Raw luminescence data [19] was 171. The Raw luminescence data (…2R) was 160, the Raw luminescence data [20] was 158 and the Raw luminescence data (2LS2…2RPG) was 162. It also gave a Raw luminescence data (PE2LS2…2R) of 162 and a Raw luminescence data [21] of 170.
